Biological target: VEGF mitogenic receptors
Assay: cell-based or functional assay

“purified human VEGF165 (R&D Systems, expressed in Sf21 cells) (from UniProt P15692 27-191) (ligand)” was tested. Which half-maximal activity, HUVEC mitogenesis ([3H]thymidine incorporation) did it give?
Its half-maximal activity, HUVEC mitogenesis ([3H]thymidine incorporation) is 17 to 19 ng/mL.

— patent US20020065240A1
